T1: EsCas13d, nuclease-dead (Eubacterium siraeum, UniProt B0MS50, R295A;H300A;R849A;H854A)
T1 sequence: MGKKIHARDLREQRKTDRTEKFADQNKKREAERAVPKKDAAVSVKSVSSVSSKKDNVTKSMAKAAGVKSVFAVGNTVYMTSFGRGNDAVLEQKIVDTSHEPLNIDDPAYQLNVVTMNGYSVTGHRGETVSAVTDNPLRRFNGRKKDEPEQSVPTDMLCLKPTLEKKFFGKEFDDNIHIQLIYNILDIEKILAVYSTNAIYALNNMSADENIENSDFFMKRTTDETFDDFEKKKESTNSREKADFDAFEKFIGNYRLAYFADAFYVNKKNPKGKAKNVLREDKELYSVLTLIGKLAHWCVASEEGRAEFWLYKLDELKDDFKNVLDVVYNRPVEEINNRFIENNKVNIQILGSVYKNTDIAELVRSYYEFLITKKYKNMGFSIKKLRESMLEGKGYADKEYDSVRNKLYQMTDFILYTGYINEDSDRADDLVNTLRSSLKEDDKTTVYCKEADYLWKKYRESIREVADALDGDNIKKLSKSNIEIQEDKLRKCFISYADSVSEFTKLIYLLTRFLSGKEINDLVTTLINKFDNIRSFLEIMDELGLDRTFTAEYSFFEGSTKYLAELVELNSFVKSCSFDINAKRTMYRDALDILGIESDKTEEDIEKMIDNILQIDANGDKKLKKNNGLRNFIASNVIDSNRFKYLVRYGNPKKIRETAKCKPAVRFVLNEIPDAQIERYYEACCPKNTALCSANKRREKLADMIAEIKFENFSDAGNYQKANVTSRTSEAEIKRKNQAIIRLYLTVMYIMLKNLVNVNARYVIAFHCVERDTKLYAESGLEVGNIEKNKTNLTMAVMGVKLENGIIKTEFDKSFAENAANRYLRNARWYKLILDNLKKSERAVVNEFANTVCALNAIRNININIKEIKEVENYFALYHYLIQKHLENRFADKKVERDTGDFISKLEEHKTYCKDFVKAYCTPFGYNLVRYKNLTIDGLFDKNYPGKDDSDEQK

B1: target 1 C6G,A16U (mixed)
RNA 1: CACCCGUGCAAAAAUGCAGGGGUCUAAAACUGAGCGGAUAACCUCUCUAUGG
RNA 2: GGGAAUGGAUCCACAUCUACGAAUUCGUACCAUAGUGAGGUUAUCGGCUCACCGAGAUCGGAAGAGCACACGU
B2: target 1 C2G,C6U (mixed)
RNA 1: CACCCGUGCAAAAAUGCAGGGGUCUAAAACUGAGCGGAUAACCUCUCUAUGG
RNA 2: GGGAAUGGAUCCACAUCUACGAAUUCGUACCAUAGAGAGGUUAUCUGCUGACCGAGAUCGGAAGAGCACACGU
B3: target 1 A16C,G17A (mixed)
RNA 1: CACCCGUGCAAAAAUGCAGGGGUCUAAAACUGAGCGGAUAACCUCUCUAUGG
RNA 2: GGGAAUGGAUCCACAUCUACGAAUUCGUACCAUAACGAGGUUAUCCGCUCACCGAGAUCGGAAGAGCACACGU
B4: target 1 A16C,C22A (mixed)
RNA 1: CACCCGUGCAAAAAUGCAGGGGUCUAAAACUGAGCGGAUAACCUCUCUAUGG
RNA 2: GGGAAUGGAUCCACAUCUACGAAUUCGUAACAUAGCGAGGUUAUCCGCUCACCGAGAUCGGAAGAGCACACGU
B5: target 1 insG 3' of 16,insU 3' of 7 (mixed)
RNA 1: CACCCGUGCAAAAAUGCAGGGGUCUAAAACUGAGCGGAUAACCUCUCUAUGG
RNA 2: GGGAAUGGAUCCACAUCUACGAAUUCGUACCAUAGAGGAGGUUAUCUCGCUCACCGAGAUCGGAAGAGCACACGU
B6: target 1 insC 3' of 10,insC 3' of 5 (mixed)
RNA 1: CACCCGUGCAAAAAUGCAGGGGUCUAAAACUGAGCGGAUAACCUCUCUAUGG
RNA 2: GGGAAUGGAUCCACAUCUACGAAUUCGUACCAUAGAGAGGUUCAUCCGCCUCACCGAGAUCGGAAGAGCACACGU
B7: target 1 insC 3' of 20,insG 3' of 1 (mixed)
RNA 1: CACCCGUGCAAAAAUGCAGGGGUCUAAAACUGAGCGGAUAACCUCUCUAUGG
RNA 2: GGGAAUGGAUCCACAUCUACGAAUUCGUACCACUAGAGAGGUUAUCCGCUCAGCCGAGAUCGGAAGAGCACACGU
B8: target 1 C4A,A16G (mixed)
RNA 1: CACCCGUGCAAAAAUGCAGGGGUCUAAAACUGAGCGGAUAACCUCUCUAUGG
RNA 2: GGGAAUGGAUCCACAUCUACGAAUUCGUACCAUAGGGAGGUUAUCCGAUCACCGAGAUCGGAAGAGCACACGU
B9: target 1 A9G,U11A (mixed)
RNA 1: CACCCGUGCAAAAAUGCAGGGGUCUAAAACUGAGCGGAUAACCUCUCUAUGG
RNA 2: GGGAAUGGAUCCACAUCUACGAAUUCGUACCAUAGAGAGGAUGUCCGCUCACCGAGAUCGGAAGAGCACACGU
B10: target 1 U3A,A9G (mixed)
RNA 1: CACCCGUGCAAAAAUGCAGGGGUCUAAAACUGAGCGGAUAACCUCUCUAUGG
RNA 2: GGGAAUGGAUCCACAUCUACGAAUUCGUACCAUAGAGAGGUUGUCCGCACACCGAGAUCGGAAGAGCACACGU
B11: target 1 insG 3' of 22,insC 3' of 17 (mixed)
RNA 1: CACCCGUGCAAAAAUGCAGGGGUCUAAAACUGAGCGGAUAACCUCUCUAUGG
RNA 2: GGGAAUGGAUCCACAUCUACGAAUUCGUACGCAUAGCAGAGGUUAUCCGCUCACCGAGAUCGGAAGAGCACACGU
B12: target 1 insU 3' of 20,insG 3' of 2 (mixed)
RNA 1: CACCCGUGCAAAAAUGCAGGGGUCUAAAACUGAGCGGAUAACCUCUCUAUGG
RNA 2: GGGAAUGGAUCCACAUCUACGAAUUCGUACCAUUAGAGAGGUUAUCCGCUCGACCGAGAUCGGAAGAGCACACGU
B13: target 1 complement block 1-4 (mixed)
RNA 1: CACCCGUGCAAAAAUGCAGGGGUCUAAAACUGAGCGGAUAACCUCUCUAUGG
RNA 2: GGGAAUGGAUCCACAUCUACGAAUUCGUACCAUAGAGAGGUUAUCCGGAGUCCGAGAUCGGAAGAGCACACGU

Molecular target: T1, EsCas13d, nuclease-dead
Assay: crRNA (strand 1, pre-loaded); Mg2+; 40 mM Tris-HCl pH 7.5, 150 mM NaCl, 6 mM MgCl2, 1 mM DTT, 0.1% Tween-20, 0.2 mg/ml BSA; 25 C; 10 min per concentration, then washed
Details: tags: His6-TwinStrep-SUMO cleaved; N-terminal SNAP kept (SNAP-Surface 488); label: 3' end held by stalled T7 RNA polymerase

| Binder | Kd [nM] |
| --- | --- |
| B1 | 40.9 ± 3.4 |
| B2 | 4.97 ± 0.22 |
| B3 | 52 ± 4 |
| B4 | 71 ± 7 |
| B5 | 22.8 ± 1.8 |
| B6 | 11.1 ± 1.1 |
| B7 | 9.3 ± 0.4 |
| B8 | 17.2 ± 1.5 |
| B9 | 42.7 ± 3.1 |
| B10 | 7.34 ± 0.29 |
| B11 | ~70 |
| B12 | 11.7 ± 0.5 |
| B13 | 5.46 ± 0.29 |

— article PMC10786891, “Massively parallel profiling of RNA-targeting CRISPR-Cas13d”
